# Data: the supplement of paper PMC12042874
# ± gives the uncertainty stated by the source.
# Assay: amyloid nucleation score (Sup35N fusion, yeast selection) (log enrichment); library NNK3; higher = more nucleation; inactive = no reads after selection
# How it was run: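 Libraries of peptides of 20 random codons fused to Sup35N were expressed in psi-negative yeast and induced 24 hours with 100 μM copper sulfate. Selection was 7 days at 30°C on medium lacking adenine and uracil, and plasmid inserts were Illumina-sequenced before and after selection. Nucleation score is the DiMSum log enrichment of output over input reads, centred on the mode score of non-aggregating sequences, and sequences with under 100 input reads were left out.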
row,Substance,amyloid nucleation score
1,GNELQSEFLDFLTCRERGKG,inactive
2,GNLASICVRLCWLCARLWST,inactive
3,GNLDTS,-0.668 ± 1
4,GNNRGTVSWVERGAWALTKA,inactive
5,GPARTRWILPRVLGCTYRAA,inactive
6,GPILL,inactive
7,GPNDLSMAFRTLYDQAVPYV,-0.521 ± 1
8,GQAVNYFGGA,inactive
9,GQWLSDTR,inactive
10,GRARNHHRKNRGIGL,inactive
11,GRHRFYSAIKQVQR,inactive
12,GRIFYWRDMDTYQR,inactive
13,GRKAWDEL,inactive
14,GRMWSACLGYMWGCFWREFW,inactive
15,GRPIKWKKRSAVK,inactive
16,GRPRVI,inactive
17,GRQYVCYYTFLKLYWLKSMW,inactive
18,GRSFCVAMVVIEGVLYRDLS,0.441 ± 0.32
19,GRSRLQQVIHLAFTIKSVNG,inactive
20,GRTSWGRRR,inactive
21,GRVSYCITRME,inactive
22,GRYCWCSLLAKYEMSLPRAR,-0.405 ± 0.8
23,GSACFPYFYTYSFRFLVAC,inactive
24,GSEHYLPSYYRFFLLVFYDV,inactive

row,Substance,amyloid nucleation score
1,GSEQSVEDGFAWMKDTYFCL,inactive
2,GSGCVIYIL,inactive
3,GSIVFGCSWASQSVCQDQWV,inactive
4,GSKAHNDIDRGGSWMGWNIA,inactive
5,GSLFVI,inactive
6,GSLVRV,inactive
7,GSMIFFSICSHFLYLLHTYT,inactive
8,GSMSSCLVKRLNC,inactive
9,GSPVRWRGPGFTSPRLTRA,0.766 ± 0.26
10,GSSYTGTEVVCKLDFSHVFR,0.92 ± 0.13
11,GSVFTRFVSREVFCWDACCR,inactive
12,GSVGILHFGKYHSIVYSACN,inactive
13,GSVRNSDKKWVPIVVYIPLQ,inactive
14,GSVSDGTILKLFHVSDRGTW,inactive
15,GSYFN,inactive
16,GSYLDDRGSGASIATLLVVM,inactive
17,GTDSFAIYSWKIRLLSERYP,inactive
18,GTEYLV,inactive
19,GTGTRSHTLA,inactive
20,GTLLMMVFGTVHS,inactive
21,GTLYAKSVRNKGSS,inactive
22,GTMIRQLERELSHMREVTYI,inactive
23,GTWSVMCSYEPMAR,inactive
24,GVDLDLLICGYMLWMDYCSG,inactive

row,Substance,amyloid nucleation score
1,GVDRRIR,inactive
2,GVDSARQRSDHVNRERSSGC,inactive
3,GVGCTKSECRSICMPKHP,inactive
4,GVGNWKP,inactive
5,GVIWSMWIASL,inactive
6,GVLASIKELH,inactive
7,GVLSLLFSYIIVYEWKEMGN,inactive
8,GVMGYSSYSLSAENTVYSPW,inactive
9,GVRLNEIGRIMIRQACGIWE,inactive
10,GVRNWG,inactive
11,GVSIGNCTMKGEVDFMVDGK,inactive
12,GVSILCLVLWSMWTLGGESW,inactive
13,GVSMERLKFDIVL,inactive
14,GVSVMSGQAMYVRKRSALEM,inactive
15,GVVKRQRLWTVGMNPKIEAW,inactive
16,GVVVIPS,0.933 ± 0.16
17,GVYMQSLLYRCFVFYNYKLD,inactive
18,GVYSVTCMFYKWEVGWSSSD,inactive
19,GVYYSCAFSTLIKGVNRSTV,inactive
20,GWHQVTGFMYAIVFVTART,inactive
21,GWNILLNLNIEYSTLYIVNL,2.44 ± 0.06
22,GWRCCWIIWADAVYE,3.05 ± 0.075
23,GWVLILKMGYFRSLWNITVL,inactive
24,GWWRSFPLQFKSPVYLNRLC,inactive

row,Substance,amyloid nucleation score
1,GYFRWSRAFQLPWNSWSEWQ,inactive
2,GYKGR,inactive
3,GYKIW,inactive
4,GYMSLLHSKPPFWSNP,0.465 ± 0.64
5,GYNCALWDVGCLHVFRPYAN,inactive
6,GYRKMVTLYVDDGNHVYRFL,inactive
7,GYRLRQTSARYIAVEWSWKC,inactive
8,GYSRG,inactive
9,GYSTRYLSV,inactive
10,GYTVAKVNFNGWNRL,0.453 ± 0.35
11,GYYPLYVTFNSMCEFNIQLQ,3.11 ± 0.051
12,HAEPIYFYIVRTLKDG,inactive
13,HAFFSADSWGNDIELFIYNG,inactive
14,HCCNIRRARTQF,inactive
15,HCFIDNKMLPYVMCYPDKKR,inactive
16,HCSCRNWSLMLGRFFVFVTC,inactive
17,HCVMNNVAWVLRYTDRRDAL,1.2 ± 0.091
18,HCVTLWLKSYL,inactive
19,HDARGLIIFARSHSAESRVR,inactive
20,HDDISISESIFRRLQIRVIL,inactive
21,HEGPKKEGLLAYVKVKRLRR,inactive
22,HEQDVAPKCWMYVELNQLGW,0.688 ± 0.2
23,HERILATGVFEMDLGMLVFR,inactive
24,HEVAAPRRRHSSMLVAGSAG,inactive

row,Substance,amyloid nucleation score
1,HFGYSGFDYYICTRY,0.049 ± 0.27
2,HFKSESRFTN,inactive
3,HFLFSNQNIRSLNIVFNSRV,2.2 ± 0.073
4,HFNEEGAQ,-0.309 ± 1.1
5,HFRIKNTCFKRCLSVESRKY,inactive
6,HFVVKV,1.27 ± 0.089
7,HGILEWMDCVLTLFTRVGMS,inactive
8,HGPRLLTSKVRFWRKTLRST,inactive
9,HHHRLARTPHDIVPRQKLVV,inactive
10,HHIFVFQGLASLNLHTDWML,1.62 ± 0.1
11,HHKMVISVSSRNQSEKRSDW,inactive
12,HHLSSDVSVLAFCNLPESNR,1.21 ± 0.17
13,HIHEDWFFS,inactive
14,HILWHTSSSGELLPMSP,inactive
15,HINDAYTCVMLYMGLTRWTI,inactive
16,HISYNHIGEYVKKSDFECSN,inactive
17,HIVLLKCIQAAETVAGFKW,inactive
18,HIWGIRKCDPPLTVVMFQSL,inactive
19,HKDICLNFSVDHLDVMSQCA,inactive
20,HKNEVKWFFFQPGKEMLGGR,inactive
21,HKSINVIRDPGKIVFLTEVI,inactive
22,HLCWNRQGNDRRELKSRWRK,inactive
